Laboratory results: publication PMC12416549 (2024)
Substitutions are numbered along the chain they refer to. In names and notes the source's numbering stands.

B1: E54S (designed binder)
chain: SMEEEVEKAAKEYEKKKKEAIEKHLEKLKAKDKEAAERFLKELEEAAKEYAKDSAKTMSEEEAKRRAKKYKEKVLLSELSEEEQKEIKEAEEKLVRTILKYVEEAAK
B2: K15E (designed binder)
chain: B1 chain with K15E, S54E
B3: K56A (designed binder)
chain: B1 chain with S54E, K56A
B4: A35G (designed binder)
chain: B1 chain with A35G, S54E
B5: A30Y (designed binder)
chain: B1 chain with A30Y, S54E
B6: E103I (designed binder)
chain: B1 chain with S54E, E103I
B7: E104R (designed binder)
chain: B1 chain with S54E, E104R
B8: V74H (designed binder)
chain: B1 chain with S54E, V74H
B9: L25H (designed binder)
chain: B1 chain with L25H, S54E
B10: S59I (designed binder)
chain: B1 chain with S54E, S59I
B11: K85F (designed binder)
chain: B1 chain with S54E, K85F
B12: E42H (designed binder)
chain: B1 chain with E42H, S54E
B13: L25W (designed binder)
chain: B1 chain with L25W, S54E
B14: K23T (designed binder)
chain: B1 chain with K23T, S54E
B15: E42C (designed binder)
chain: B1 chain with E42C, S54E
B16: L75K (designed binder)
chain: B1 chain with S54E, L75K
B17: A20P (designed binder)
chain: B1 chain with A20P, S54E
B18: E37S (designed binder)
chain: B1 chain with E37S, S54E
B19: Y101L (designed binder)
chain: B1 chain with S54E, Y101L
B20: K27P (designed binder)
chain: B1 chain with K27P, S54E
B21: E83S (designed binder)
chain: B1 chain with S54E, E83S
B22: K16C (designed binder)
chain: B1 chain with K16C, S54E
B23: E26L (designed binder)
chain: B1 chain with E26L, S54E
B24: A9C (designed binder)
chain: B1 chain with A9C, S54E
B25: M58K (designed binder)
chain: B1 chain with S54E, M58K
B26: A51M (designed binder)
chain: B1 chain with A51M, S54E
B27: V74L (designed binder)
chain: B1 chain with S54E, V74L
B28: E61T (designed binder)
chain: B1 chain with S54E, E61T
B29: A10I (designed binder)
chain: B1 chain with A10I, S54E
B30: E37C (designed binder)
chain: B1 chain with E37C, S54E
B31: L40N (designed binder)
chain: B1 chain with L40N, S54E
B32: E83A (designed binder)
chain: B1 chain with S54E, E83A
B33: K64L (designed binder)
chain: B1 chain with S54E, K64L
B34: E92L (designed binder)
chain: B1 chain with S54E, E92L
B35: V6Q (designed binder)
chain: B1 chain with V6Q, S54E
B36: L25D (designed binder)
chain: B1 chain with L25D, S54E
B37: F39C (designed binder)
chain: B1 chain with F39C, S54E
B38: Y13C (designed binder)
chain: B1 chain with Y13C, S54E
B39: V95W (designed binder)
chain: B1 chain with S54E, V95W
B40: S77E (designed binder)
chain: B1 chain with S54E, S77E
B41: V102L (designed binder)
chain: B1 chain with S54E, V102L
B42: K52V (designed binder)
chain: B1 chain with K52V, S54E
B43: S1W (designed binder)
chain: B1 chain with S1W, S54E
B44: L40D (designed binder)
chain: B1 chain with L40D, S54E
B45: L99F (designed binder)
chain: B1 chain with S54E, L99F
B46: L79V (designed binder)
chain: B1 chain with S54E, L79V
B47: L28C (designed binder)
chain: B1 chain with L28C, S54E
B48: K16E (designed binder)
chain: B1 chain with K16E, S54E
B49: V6G (designed binder)
chain: B1 chain with V6G, S54E
B50: L94M (designed binder)
chain: B1 chain with S54E, L94M
B51: K29F (designed binder)
chain: B1 chain with K29F, S54E
B52: K33L (designed binder)
chain: B1 chain with K33L, S54E
B53: A36K (designed binder)
chain: B1 chain with A36K, S54E
B54: V95C (designed binder)
chain: B1 chain with S54E, V95C
B55: E7A (designed binder)
chain: B1 chain with E7A, S54E
B56: R65A (designed binder)
chain: B1 chain with S54E, R65A
B57: K48F (designed binder)
chain: B1 chain with K48F, S54E
B58: K16G (designed binder)
chain: B1 chain with K16G, S54E
B59: A106I (designed binder)
chain: B1 chain with S54E, A106I

Target: T1, TNFR1 (Homo sapiens, UniProt P19438)
T1 chain: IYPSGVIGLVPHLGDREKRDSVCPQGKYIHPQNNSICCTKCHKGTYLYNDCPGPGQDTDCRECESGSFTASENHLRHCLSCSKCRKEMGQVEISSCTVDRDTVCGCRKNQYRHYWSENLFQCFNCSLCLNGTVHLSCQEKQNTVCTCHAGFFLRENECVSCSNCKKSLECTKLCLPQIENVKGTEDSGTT
Assay: yeast display SC50

Binder | apparent Kd (screen)
B1 | 6.43 nM
B2 | 0.869 nM
B3 | 3 nM
B4 | 1.16 nM
B5 | 0.446 nM
B6 | 0.539 nM
B7 | 0.446 nM
B8 | 6.43 nM
B9 | 0.49 nM
B10 | 2.73 nM
B11 | 0.539 nM
B12 | 5.84 nM
B13 | 0.446 nM
B14 | 0.446 nM
B15 | 22.2 nM
B16 | 1.69 nM
B17 | 3.63 nM
B18 | 0.49 nM
B19 | 0.405 nM
B20 | 2.73 nM

Binder | apparent Kd (screen)
B21 | 0.869 nM
B22 | 1.05 nM
B23 | 0.869 nM
B24 | 0.446 nM
B25 | 16.7 nM
B26 | 0.49 nM
B27 | 0.49 nM
B28 | 0.956 nM
B29 | 0.446 nM
B30 | 0.49 nM
B31 | 0.539 nM
B32 | 0.405 nM
B33 | 0.446 nM
B34 | 10.4 nM
B35 | 6.43 nM
B36 | 2.73 nM
B37 | 5.31 nM
B38 | 1.27 nM
B39 | 13.8 nM
B40 | 0.869 nM

Binder | apparent Kd (screen)
B41 | 3 nM
B42 | 0.956 nM
B43 | 3.63 nM
B44 | 1.4 nM
B45 | 9.41 nM
B46 | 1.27 nM
B47 | 0.49 nM
B48 | 1.54 nM
B49 | 2.48 nM
B50 | 1.86 nM
B51 | 1.05 nM
B52 | 0.653 nM
B53 | 0.49 nM
B54 | 11.4 nM
B55 | 3.63 nM
B56 | 1.27 nM
B57 | 0.593 nM
B58 | 0.49 nM
B59 | 5.84 nM
